Data on one molecule can be found in PMC7512442.

This series has as its target T1, RBM22 (pre-mRNA-splicing factor RBM22) (Homo sapiens, UniProt Q9NW64 1-420).
T1 sequence: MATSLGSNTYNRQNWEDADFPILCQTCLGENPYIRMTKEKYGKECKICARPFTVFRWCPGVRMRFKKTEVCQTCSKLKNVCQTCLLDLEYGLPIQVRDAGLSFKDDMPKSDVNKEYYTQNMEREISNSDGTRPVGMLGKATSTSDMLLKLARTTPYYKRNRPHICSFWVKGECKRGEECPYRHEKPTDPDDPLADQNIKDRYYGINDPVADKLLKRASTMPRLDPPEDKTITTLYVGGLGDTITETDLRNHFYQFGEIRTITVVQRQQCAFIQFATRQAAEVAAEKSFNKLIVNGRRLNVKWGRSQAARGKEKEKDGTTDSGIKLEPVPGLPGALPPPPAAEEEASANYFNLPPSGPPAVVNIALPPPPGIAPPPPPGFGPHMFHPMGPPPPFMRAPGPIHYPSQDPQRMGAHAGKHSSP
In words: EMSA. Background: Mobility shift assays separate free from complexed probe on a gel.

B1: human U5 snRNA fragment (nonspecific control) (ssRNA)
RNA: GGGGAUCCACAUGGUUCUUGCCUUUU
Consider B1, for which the binding result is given as “no binding”.
